PMC6609445

Molecular target: purified NTRI ectodomain (FLAG-NTRI, Fc removed) (human) (UniProt Q9P121)
Test: AUC

purified NTRI ectodomain (FLAG-NTRI, Fc removed) (from UniProt Q9P121 34-321) (domain or fragment)
Kd: 110 nM
percent dimer at 2.0 uM: 50%
percent dimer at 10 uM: 87%
stoichiometry N: 2
